What was measured:
[1] = immunoprecipitation and phospho-S720 immunoblot; details: glycan lost
[2] = lysosomal fractionation, glucose starvation; details: glycan lost; control: control siRNA
[3] = LARS1 immunoprecipitation, immunoblot, knock-in cells; details: glycan lost; control: WT SW620 cells, glucose starvation
[4] = lysosomal fractionation, knock-in cells, glucose starvation; details: glycan lost; control: WT SW620 cells
[5] = near-UV circular dichroism; details: glycan lost; control: WT LARS1, same OGT1 condition
[6] = in vitro GTPase assay, GTP-agarose pulldown; details: glycan lost; control: unmodified WT LARS1 with ATP and leucine
[7] = lysosomal fractionation, leucine added without glucose; details: glycan lost; control: overexpressed WT LARS1
[8] = RagD GTP hydrolysis, GTP-agarose pulldown, glucose-starved cells; details: glycan lost; control: overexpressed WT LARS1
[9] = control: control siRNA, glucose starvation

leucyl-tRNA synthetase 1 (LARS1): GFPT1 siRNA
other: S720 phosphorylation by ULK1 [1, 9]: decreases | localisation_or_trafficking [2]: increases

leucyl-tRNA synthetase 1 (LARS1): OGT1 siRNA
other: S720 phosphorylation by ULK1 [1, 9]: decreases

leucyl-tRNA synthetase 1 (LARS1): S1042A knock-in
other: S720 phosphorylation by ULK1 [3]: decreases | localisation_or_trafficking [4]: increases

leucyl-tRNA synthetase 1 (LARS1): S1042A without OGT1
structure_or_conformation [5]: no change

leucyl-tRNA synthetase 1 (LARS1): S1042A ± OGT1
enzymatic_activity [6]: no change

leucyl-tRNA synthetase 1 (LARS1): S1042A
other: S720 phosphorylation by ULK1 ([1]; control: overexpressed WT LARS1, glucose starvation): abolishes | localisation_or_trafficking [7]: increases | enzymatic_activity [8]: increases

leucyl-tRNA synthetase 1 (LARS1): S1042A with OGT1
structure_or_conformation [5]: changes

— publication PMC9133088
